Results on 46 variants are retold here after IntAct's records for PubMed 15604664.

To fix the notation:
B1: Floral homeotic protein … (Arabidopsis thaliana (Mouse-ear cress)), P48007 (parent)
chain: MGRGKIEIKRIENANNRVVTFSKRRNGLVKKAKEITVLCDAKVALIIFASNGKMIDYCCPSMDLGAMLDQYQKLSGKKLWDAKHENLSNEIDRIKKENDSLQLELRHLKGEDIQSLNLKNLMAVEHAIEHGLDKVRDHQMEILISKRRNEKMMAEEQRQLTFQLQQQEMAIASNARGMMMRDHDGQFGYRVQPIQPNLQEKIMSLVID
partner: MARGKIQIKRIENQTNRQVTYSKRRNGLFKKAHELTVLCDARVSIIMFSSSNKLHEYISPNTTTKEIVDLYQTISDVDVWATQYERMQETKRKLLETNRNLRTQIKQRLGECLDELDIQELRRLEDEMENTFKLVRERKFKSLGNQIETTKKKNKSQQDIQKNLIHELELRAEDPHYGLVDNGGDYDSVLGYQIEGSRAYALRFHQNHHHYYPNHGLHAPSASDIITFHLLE
B2: Developmental protein … 3 (Arabidopsis thaliana (Mouse-ear cress)), O22456 (parent)
chain: MGRGRVELKRIENKINRQVTFAKRRNGLLKKAYELSVLCDAEVALIIFSNRGKLYEFCSSSSMLRTLERYQKCNYGAPEPNVPSREALAVELSSQQEYLKLKERYDALQRTQRNLLGEDLGPLSTKELESLERQLDSSLKQIRALRTQFMLDQLNDLQSKERMLTETNKTLRLRLADGYQMPLQLNPNQEEVDHYGRHHHQQQQHSQAFFQPLECEPILQIGYQGQQDGMGAGPSVNNYMLGWLPYDTNSI
partner: B1 chain
B3: Floral homeotic protein … (Arabidopsis thaliana (Mouse-ear cress)), P48007 (parent)
chain: B1 chain

Variants of B1 are the subject of the first experiment. As to conditions: with ap3_arath AP3, P35632.
M153P: the “effect of a mutation on the interaction” value was “decreasing interaction”. On the same count and under the same terms, in the case of G110P it was “decreasing interaction”. Turning to G110A, the “effect of a mutation on the interaction” value is “decreasing interaction”. Take L160P: the “effect of a mutation on the interaction” value is listed as “increasing interaction”.

Take N98D: the “effect of a mutation on the interaction” value was “decreasing interaction”. Take L105H: the “effect of a mutation on the interaction” value was “decreasing interaction”. On to L108S, for which the “effect of a mutation on the interaction” value is recorded as “decreasing interaction”. Still for that read-out and setting: in the case of L132P it was “decreasing interaction”; in that of L87P, “decreasing interaction”. Turning to L121P, the “effect of a mutation on the interaction” value was “decreasing interaction”. Still for that read-out and setting: under L121A stands “decreasing interaction”.

On to Q167P, for which the “effect of a mutation on the interaction” value is “increasing interaction”.

For V135A, the “effect of a mutation on the interaction” value is on record as “decreasing interaction”. Take I94T: the “effect of a mutation on the interaction” value was “decreasing interaction”.

For the variant Q102P, the “effect of a mutation on the interaction” value was “decreasing interaction”.

With G131V, the “effect of a mutation on the interaction” value is reported as “decreasing interaction”. Still for that read-out and setting: under G131P stands “decreasing interaction”; under A127P, “decreasing interaction”.

With G177P, the “effect of a mutation on the interaction” value is “increasing interaction”.

Regarding I91T, the “effect of a mutation on the interaction” value is on record as “decreasing interaction”. The same measure, in the same setting: under N149P stands “increasing interaction”; under L143P, “decreasing interaction”. Same read-out and setting: under I142P stands “decreasing interaction”. The same measure, in the same setting: in the case of L116R it was “decreasing interaction”; in that of L116P, “decreasing interaction”; in that of L103P, “decreasing interaction”. For the variant V124D, the “effect of a mutation on the interaction” value is “decreasing interaction”. Still for that read-out and setting: in the case of A154P it was “decreasing interaction”; in that of I128T, “decreasing interaction”. The same measure, in the same setting: in the case of S145P it was “decreasing interaction”; in that of L101A, “decreasing interaction”.

The next experiment covers variants of B2. As to conditions: with pist_arath PI, P48007.
Consider R146E, for which the “effect of a mutation on the interaction” value is recorded as “decreasing interaction”.

The next experiment covers variants of B3. As to conditions: with sep3_arath SEP3, O22456.
Consider E141R;P193L, for which the “effect of a mutation on the interaction” value was “decreasing interaction”. On the same count and under the same terms, under I128F stands “decreasing interaction”; under I128V, “decreasing interaction”; under A154P;Q157E;F162L, “decreasing interaction”. Same read-out and setting: under I142F stands “decreasing interaction”; under E129D, “decreasing interaction”; under R158Q;E168V, “decreasing interaction”. The same measure, in the same setting: in the case of P193L it was “decreasing interaction”; in that of A127P, “decreasing interaction”; in that of K151E, “decreasing interaction”. Consider E129K;L132P, for which the “effect of a mutation on the interaction” value is recorded as “decreasing interaction”. With L164Q, the “effect of a mutation on the interaction” value is reported as “decreasing interaction”.

On to L143P, for which the “effect of a mutation on the interaction” value was “decreasing interaction”. On to F162L;M203T, for which the “effect of a mutation on the interaction” value is given as “decreasing interaction”.
